Results from patent publication US20240173425A1, “HUMAN CD33 ANTIBODIES AND GLUCOCORTICOID CONJUGATES” (Eli Lilly and Company, priority 2022, published 2024).

Test system: primary human monocyte cells
Assay: Antibody internalization (pHrodo Red, flow cytometry)
Type: cell-based
Settings: pHrodo-labeled antibodies 10 μg/mL, 2 hours at 37° C.
Description: Exemplified anti-human CD33 antibodies were labeled with pHrodo™ Red, amine-reactive dye (Thermo Fisher, P36014). The pH-sensitive dye was a non-fluorescent when outside the cells but fluoresces brightly in acidic low-pH lysosomes. This property allows visualization and qualification of the internalization of an antibody by flow cytometry. Human PBMCs (500 K/well) were incubated on ice in FACS buffer for 30 min, to quiesce baseline internalization. Cells were stained with pHrodo-labeled antibodies (10 μg/mL) in FACS buffer for 1 hour on ice then transferred to 37° C. for 2 hours. Cells were then stained with the remaining panel of surface detection marker: CD45 mAb (clone HI30); CD11b (clone ICRF44); CD14 (clone M5E2).

B1: Gemtuzumab: Gemtuzumab (hIgG4PAA), comparator anti-CD33 antibody in the internalization assay (antibody, chains of the INN, looked up, V domains shown)
VH: EVQLVQSGAEVKKPGSSVKVSCKASGYTITDSNIHWVRQAPGQSLEWIGYIYPYNGGTDYNQKFKNRATLTVDNPTNTAYMELSSLRSEDTAFYYCVNGNPWLAYWGQGTLVTVSS
VL: DIQLTQSPSTLSASVGDRVTITCRASESLDNYGIRFLTWFQQKPGKAPKLLMYAASNQGSGVPSRFSGSGSGTEFTLTISSLQPDDFATYYCQQTKEVPWSFGQGTKVEVK
modifications: hIgG4PAA
notes: Gemtuzumab (hIgG4PAA), comparator anti-CD33 antibody in the internalization assay
  % Internalization: 50.55 ± 2.899%
Listed as Gemtuzumab (hIgG4PAA)
  % Internalization: about 50%
